Laboratory results published in US20150132307A1.

Experiments:
[1] = molecular target: recombinant human IL-17 (Peprotech #200-17) (human) (UniProt Q16552); assay: cell-based or functional assay
[2] = molecular target: recombinant human IL-17 (Peprotech #200-17) (human) (UniProt Q16552); assay: ELISA, coated IL-17 subtype 0.5 µg/ml, antibody 10 µg/ml, OD 405/492 nm
Human IL17B (human) = Human IL17B (human) (UniProt Q9UHF5); assay: ELISA, coated IL-17 subtype, antibody 10 µg/ml, OD 405/492 nm
Human IL17C (human) = Human IL17C (human) (UniProt Q9P0M4); assay: as above
Chain of Human IL17C (human) (Q9P0M4 19-197 limits assumed): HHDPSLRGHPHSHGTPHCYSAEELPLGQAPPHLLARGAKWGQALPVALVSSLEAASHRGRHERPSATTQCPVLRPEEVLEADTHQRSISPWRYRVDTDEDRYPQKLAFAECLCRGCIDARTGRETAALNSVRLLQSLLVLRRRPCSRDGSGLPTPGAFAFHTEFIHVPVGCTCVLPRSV

Human IL17D (human) = Human IL17D (human) (UniProt Q8TAD2); assay: as above
Chain of Human IL17D (human) (Q8TAD2 16-202 limits assumed): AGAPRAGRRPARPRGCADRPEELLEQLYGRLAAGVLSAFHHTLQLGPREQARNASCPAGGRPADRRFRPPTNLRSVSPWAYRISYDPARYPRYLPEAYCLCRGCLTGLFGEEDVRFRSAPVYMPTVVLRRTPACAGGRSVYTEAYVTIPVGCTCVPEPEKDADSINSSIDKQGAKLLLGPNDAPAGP

Human IL17E (human) = Human IL17E (human) (UniProt Q9H293); assay: as above
Chain of Human IL17E (human) (Q9H293 33-177 limits assumed): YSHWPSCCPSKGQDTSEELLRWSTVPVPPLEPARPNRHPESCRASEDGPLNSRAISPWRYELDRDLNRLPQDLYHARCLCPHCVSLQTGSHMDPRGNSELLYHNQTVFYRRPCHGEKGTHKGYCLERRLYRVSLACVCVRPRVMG

Human IL17F (human) = Human IL17F (human) (UniProt Q96PD4); assay: as above
Chain of Human IL17F (human) (Q96PD4 31-163 limits assumed): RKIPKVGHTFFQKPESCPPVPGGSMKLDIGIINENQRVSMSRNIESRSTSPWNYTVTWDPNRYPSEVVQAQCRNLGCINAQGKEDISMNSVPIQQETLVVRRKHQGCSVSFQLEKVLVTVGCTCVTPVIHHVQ

[3] = molecular target: cynomolgous IL-17A (cynomolgous); assay: binding ELISA according to example 2; human and humanized IL17 antibodies compared (NVP-AIN-497 = 100)
[4] = molecular target: recombinant human IL-17 (Peprotech #200-17) (human) (UniProt Q16552); assay: as above
[5] = molecular target: cynomolgous IL-17A (cynomolgous); assay: binding ELISA according to example 2; mouse IL17 antibodies compared (Mab 317 = 100)
[6] = molecular target: recombinant human IL-17 (Peprotech #200-17) (human) (UniProt Q16552); assay: as above

Chain of recombinant human IL-17 (Peprotech #200-17) (human) (Q16552 20-155 limits assumed): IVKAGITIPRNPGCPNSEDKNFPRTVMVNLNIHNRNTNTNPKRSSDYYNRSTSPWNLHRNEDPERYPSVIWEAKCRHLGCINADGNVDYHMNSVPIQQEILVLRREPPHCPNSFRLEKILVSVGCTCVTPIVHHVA
Chain of Human IL17B (human) (Q9UHF5 21-180 limits assumed): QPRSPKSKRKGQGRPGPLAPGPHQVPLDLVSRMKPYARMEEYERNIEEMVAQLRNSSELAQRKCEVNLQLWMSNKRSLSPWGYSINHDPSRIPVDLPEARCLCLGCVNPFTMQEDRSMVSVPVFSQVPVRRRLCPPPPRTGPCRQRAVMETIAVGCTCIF

Substance | IL-6 Inhibition IC50 (nM) (CCD-25SK cells, IL-17A + TNF-alpha) [1] | Binding (IL-17A binding set as 100) (% of IL-17A binding) [2] | Binding (IL-17A binding set as 100) (% of IL-17A binding) (Human IL17B (human)) | Binding (IL-17A binding set as 100) (% of IL-17A binding) (Human IL17C (human)) | Binding (IL-17A binding set as 100) (% of IL-17A binding) (Human IL17D (human)) | Binding (IL-17A binding set as 100) (% of IL-17A binding) (Human IL17E (human)) | Binding (IL-17A binding set as 100) (% of IL-17A binding) (Human IL17F (human)) | Relative binding to cynomolgous IL-17A [3] [%] | Relative binding to human IL-17A [4] [%] | Relative binding to cynomolgous IL-17A in % [5] [%] | Relative binding to human IL-17A in % [6] [%]
MAB 317 of R&D Systems (antibody) | 2.8 | 100 |  |  |  |  |  |  |  |  | 
Mab 16-7178-85 of eBioscience (antibody) |  | 100 | 7 | 97 | 6 | 5 | 5 |  |  |  | 
NVP-AIN-497 (WO 2006/013107) (antibody) |  | 100 | 2 | 2 |  | 3 | 62 | 100 | 100 |  | 
eBio64CAP17 (antibody) |  |  |  |  |  |  |  |  |  | 124 | 122
